Reference: patent publication US7459544 (GENETICS INSTITUTE, dated 2008)

Molecular target: Human CTLA4 fusion protein (CTLA4Ig) (human, UniProt P16410 36-161)
Assay: solid phase competition on immobilized CTLA4-Ig; reference B7-1Ig

Chain of Human CTLA4 fusion protein (CTLA4Ig) (P16410 36-161): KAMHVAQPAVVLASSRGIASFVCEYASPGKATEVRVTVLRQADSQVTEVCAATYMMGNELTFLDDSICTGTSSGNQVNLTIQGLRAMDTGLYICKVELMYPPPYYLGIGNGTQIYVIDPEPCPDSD

B1: human B7-2 immunoglobulin fusion protein (hB7-2Ig, full extracellular domain) (Fc fusion)
chain: APLKIQAYFNETADLPCQFANSQNQSLSELVVFWQDQENLVLNEVYLGKEKFDSVHSKYMGRTSFDSDSWTLRLHNLQIKDKGLYQCIIHHKKPTGMIRIHQMNSELSVLANFSQPEIVPISNITENVYINLTCSSIHGYPEPKKMSVLLRTKNSTIEYDGIMQKSQDNVTELYDVSISLSVSFPDVTSNMTIFCILETDKTRLLSSPFSIELEDPQPPPD
modifications: Biotinylated or 125I-labelled in some assays.
notes: Coated on plates, biotinylated or 125I-labelled depending on the assay; also called human B7.2-Ig; full-length B7-2; not shown: Junction residue Q and the hinge-CH2-CH3 of human IgG1 or IgG4 (hinge Cys to Ser, optionally CH2 mutated)
fold lower avidity than B7-1: ~2 fold
